The subject of one series is hTERT-HMEC. The series can be described thus: percentage of EdU-negative (G0-arrested) nuclei per well, 72 h; higher = more G0 arrest. To be noted: reference: sequence is the full UniProt precursor, the tested protein was the secreted form or ectodomain.
In another series the test system is MCF7. The description is as above. To be noted: reference: sequence is the full UniProt precursor, the tested protein was the secreted form or ectodomain.
[1] abbreviates: protein concentration 0.0357143 µM.
Where [2] appears, read: protein concentration 0.357143 µM.
[3] abbreviates: protein concentration 0.00914286 µM.
Where [4] appears, read: protein concentration 0.0914286 µM.
Setting [5] is: protein concentration 0.0065 µM.
[6] abbreviates: protein concentration 0.02225 µM.
[7] abbreviates: protein concentration 0.2225 µM.

These results are taken from the supplement of paper PMC11316812.

± gives the standard deviation of the averaged measurements.
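Also: secreted proteins added to cultured cells, EdU pulse at the end, nuclei found by Hoechst imaging, EdU status from nuclear versus surrounding ring intensity ratio, PBS as neutral control.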

As to “MWLRAFILATLSASAAWGHPSSPPVVDTVHGKVLGKFVSLEGFAQPVAIFLGIPFAKPPLGPLRFTPPQPAEPWSFVKNATSYPPMCTQDPKAGQLLSELFTNRKENIPLKLSEDCLYLNIYTPADLTKKNRLPVMVWIHGGGLMVGAASTYDGLALAAHENVVVVTIQYRLGIWGFFSTGDEHSRGNWGHLDQVAALRWVQDNIASFGGNPGSVTIFGESAGGESVSVLVLSPLAKNLFHRAISESGVALTSVLVKKGDVKPLAEQIAITAGCKTTTSAVMVHCLRQKTEEELLETTLKMKFLSLDLQGDPRESQPLLGTVIDGMLLLKTPEELQAERNFHTVPYMVGINKQEFGWLIPMQLMSYPLSEGQLDQKTAMSLLWKSYPLVCIAKELIPEATEKYLGGTDDTVKKKDLFLDLIADVMFGVPSVIVARNHRDAGAPTYMYEFQYRPSFSSDMKPKTVIGDHGDELFSVFGAPFLKEGASEEEIRLSKMVMKFWANFARNGNPNGEGLPHWPEYNQKEGYLQIGANTQAAQKLKDKEVAFWTNLFAKKAVEKPPQTEHIEL”, the “percentage of EdU-negative” value with hTERT-HMEC (setting [1]) stood at 4.96 ± 0.78%; with hTERT-HMEC (setting [2]), 6.05 ± 0.03%; with MCF7 (setting [1]), 23.32 ± 0.21%; in the series on MCF7 (setting [2]), 24.5 ± 1.9%.

On to “MDLWNLSWFLFLDALLVISGLATPENFDVDGGMDQDIFDINEGLGLDLFEGDIRLDRAQIRNSIIGEKYRWPHTIPYVLEDSLEMNAKGVILNAFERYRLKTCIDFKPWAGETNYISVFKGSGCWSSVGNRRVGKQELSIGANCDRIATVQHEFLHALGFWHEQSRSDRDDYVRIMWDRILSGREHNFNTYSDDISDSLNVPYDYTSVMHYSKTAFQNGTEPTIVTRISDFEDVIGQRMDFSDSDLLKLNQLYNCSSSLSFMDSCSFELENVCGMIQSSGDNADWQRVSQVPRGPESDHSNMGQCQGSGFFMHFDSSSVNVGATAVLESRTLYPKRGFQCLQFYLYNSGSESDQLNIYIREYSADNVDGNLTLVEEIKEIPTGSWQLYHVTLKVTKKFRVVFEGRKGSGASLGGLSIDDINLSETRCPHHIWHIRNFTQFIGSPNGTLYSPPFYSSKGYAFQIYLNLAHVTNAGIYFHLISGANDDQLQWPCPWQQATMTLLDQNPDIRQRMSNQRSITTDPFMTTDNGNYFWDRPSKVGTVALFSNGTQFRRGGGYGTSAFITHERLKSRDFIKGDDVYILLTVEDISHLNSTQIQLTPAPSVQDLCSKTTCKNDGVCTVRDGKAECRCQSGEDWWYMGERCEKRGSTRDTIVIAVSSTVAVFALMLIITLVSVYCTRKKYRERMSSNRPNLTPQNQHAF”, for which the “percentage of EdU-negative” value with hTERT-HMEC (setting [3]) was 6.01 ± 0.12%; with hTERT-HMEC (setting [4]), 6.74 ± 0.94%; in the series with MCF7 (setting [3]) it was 24.7 ± 3.1%; in the series with MCF7 (setting [4]) it was 27.5 ± 1.1%.

Consider “MVGAMWKVIVSLVLLMPGPCDGLFRSLYRSVSMPPKGDSGQPLFLTPYIEAGKIQKGRELSLVGPFPGLNMKSYAGFLTVNKTYNSNLFFWFFPAQIQPEDAPVVLWLQGGPGGSSMFGLFVEHGPYVVTSNMTLRDRDFPWTTTLSMLYIDNPVGTGFSFTDDTHGYAVNEDDVARDLYSALIQFFQIFPEYKNNDFYVTGESYAGKYVPAIAHLIHSLNPVREVKINLNGIAIGDGYSDPESIIGGYAEFLYQIGLLDEKQKKYFQKQCHECIEHIRKQNWFEAFEILDKLLDGDLTSDPSYFQNVTGCSNYYNFLRCTEPEDQLYYVKFLSLPEVRQAIHVGNQTFNDGTIVEKYLREDTVQSVKPWLTEIMNNYKVLIYNGQLDIIVAAALTERSLMGMDWKGSQEYKKAEKKVWKIFKSDSEVAGYIRQAGDFHQVIIRGGGHILPYDQPLRAFDMINRFIYGKGWDPYVG [Q9H3G5]”, for which the “percentage of EdU-negative” value with hTERT-HMEC (protein concentration 0.014 µM) was 5.19 ± 0.19%; in the series on hTERT-HMEC (protein concentration 0.14 µM) it was 6.64 ± 0.14%; with MCF7 (protein concentration 0.014 µM), 26.1 ± 4.2%; with MCF7 (protein concentration 0.14 µM), 29.1 ± 0.47%.

Turning to “MVGTKAWVFSFLVLEVTSVLGRQTMLTQSVRRVQPGKKNPSIFAKPADTLESPGEWTTWFNIDYPGGKGDYERLDAIRFYYGDRVCARPLRLEARTTDWTPAGSTGQVVHGSPREGFWCLNREQRPGQNCSNYTVRFLCPPGSLRRDTERIWSPWSPWSKCSAACGQTGVQTRTRICLAEMVSLCSEASEEGQHCMGQDCTACDLTCPMGQVNADCDACMCQDFMLHGAVSLPGGAPASGAAIYLLTKTPKLLTQTDSDGRFRIPGLCPDGKSILKITKVKFAPIVLTMPKTSLKAATIKAEFVRAETPYMVMNPETKARRAGQSVSLCCKATGKPRPDKYFWYHNDTLLDPSLYKHESKLVLRKLQQHQAGEYFCKAQSDAGAVKSKVAQLIVIASDETPCNPVPESYLIRLPHDCFQNATNSFYYDVGRCPVKTCAGQQDNGIRCRDAVQNCCGISKTEEREIQCSGYTLPTKVAKECSCQRCTETRSIVRGRVSAADNGEPMRFGHVYMGNSRVSMTGYKGTFTLHVPQDTERLVLTFVDRLQKFVNTTKVLPFNKKGSAVFHEIKMLRRKKPITLEAMETNIIPLGEVVGEDPMAELEIPSRSFYRQNGEPYIGKVKASVTFLDPRNISTATAAQTDLNFINDEGDTFPLRTYGMFSVDFRDEVTSEPLNAGKVKVHLDSTQVKMPEHISTVKLWSLNPDTGLWEEEGDFKFENQRRNKREDRTFLVGNLEIRERRLFNLDVPESRRCFVKVRAYRSERFLPSEQIQGVVISVINLEPRTGFLSNPRAWGRFDSVITGPNGACVPAFCDDQSPDAYSAYVLASLAGEELQAVESSPKFNPNAIGVPQPYLNKLNYRRTDHEDPRVKKTAFQISMAKPRPNSAEESNGPIYAFENLRACEEAPPSAAHFRFYQIEGDRYDYNTVPFNEDDPMSWTEDYLAWWPKPMEFRACYIKVKIVGPLEVNVRSRNMGGTHRQTVGKLYGIRDVRSTRDRDQPNVSAACLEFKCSGMLYDQDRVDRTLVKVIPQGSCRRASVNPMLHEYLVNHLPLAVNNDTSEYTMLAPLDPLGHNYGIYTVTDQDPRTAKEIALGRCFDGTSDGSSRIMKSNVGVALTFNCVERQVGRQSAFQYLQSTPAQSPAAGTVQGRVPSRRQQRASRGGQRQGGVVASLRFPRVAQQPLIN”, the “percentage of EdU-negative” value in the series on hTERT-HMEC (setting [5]) stood at 4.85 ± 0.48%; in the series with hTERT-HMEC (protein concentration 0.065 µM) it was 4.77 ± 1%; with MCF7 (setting [5]), 25.3 ± 0.34%; with MCF7 (protein concentration 0.065 µM), 25.9 ± 2%.

As to “MYLSRFLSIHALWVTVSSVMQPYPLVWGHYDLCKTQIYTEEGKVWDYMACQPESTDMTKYLKVKLDPPDITCGDPPETFCAMGNPYMCNNECDASTPELAHPPELMFDFEGRHPSTFWQSATWKEYPKPLQVNITLSWSKTIELTDNIVITFESGRPDQMILEKSLDYGRTWQPYQYYATDCLDAFHMDPKSVKDLSQHTVLEIICTEEYSTGYTTNSKIIHFEIKDRFAFFAGPRLRNMASLYGQLDTTKKLRDFFTVTDLRIRLLRPAVGEIFVDELHLARYFYAISDIKVRGRCKCNLHATVCVYDNSKLTCECEHNTTGPDCGKCKKNYQGRPWSPGSYLPIPKGTANTCIPSISSIGNCECFGHSNRCSYIDLLNTVICVSCKHNTRGQHCELCRLGYFRNASAQLDDENVCIECYCNPLGSIHDRCNGSGFCECKTGTTGPKCDECLPGNSWHYGCQPNVCDNELLHCQNGGTCHNNVRCLCPAAYTGILCEKLRCEEAGSCGSDSGQGAPPHGSPALLLLTTLLGTASPLVF [Q9Y2I2]”, the “percentage of EdU-negative” value was determined as 5.38 ± 0.34% with hTERT-HMEC (setting [6]), 5.84 ± 1.4% with hTERT-HMEC (setting [7]), 26.06 ± 0.23% in the series on MCF7 (setting [6]) and 28.6 ± 3.7% with MCF7 (setting [7]).
